Assays:
Experiment in all cases: pull-down; GST-tagged HsIFT172 constructs (10 μM; 5 μM in Figure 4C) immobilised on GSH beads; prey 20 μM UbcH5a~Ub or 15-25 μM tetra-ubiquitin in 50 mM Tris pH 7.5, 100 mM NaCl, 1 mM DTT, 4 °C, 2 hr; eluted with glutathione; Coomassie and anti-ubiquitin western blot
Conditions in all cases: both partners purified
[1] = target: T1, UbcH5a_(C85S)~Ub conjugate, UbcH5a F62A (human, UniProt P51668 1-147; P0CG48 1-76, C85S | F62A, oxyester link from Ser85 (C85S) to ubiquitin | oxyester-linked to UbcH5a Ser85)
T1 construct: Homo sapiens UbcH5a, full length, C85S and F62A; Homo sapiens ubiquitin; source: in vitro charging reaction of proteins purified from E. coli, purified

[2] = target: T2, UbcH5a_(C85S)~Ub conjugate (WT) (human, UniProt P51668 1-147; P0CG48 1-76, C85S, oxyester link from Ser85 (C85S) to ubiquitin | oxyester-linked to UbcH5a Ser85)
T2 construct: Homo sapiens UbcH5a (E2 enzyme), full length, active site cysteine mutated to serine; Homo sapiens ubiquitin; Protocol adapted from Middleton et al., 2014; also called WT UbcH5a~Ub conjugate; E2~Ub conjugate

[3] = target: T3, UbcH5a_(C85S)~Ub conjugate, UbcH5a A96D (human, UniProt P51668 1-147; P0CG48 1-76, C85S | A96D, oxyester link from Ser85 (C85S) to ubiquitin | oxyester-linked to UbcH5a Ser85)
T3 construct: Homo sapiens UbcH5a, full length, C85S and A96D; Homo sapiens ubiquitin; source: in vitro charging reaction of proteins purified from E. coli, purified

Measured: binding result

B1: GST-tagged HsIFT172C2 (His-GST-TEV-HsIFT172_(1470-C)) (domain or fragment, human, UniProt Q9UG01 1470-1749, looked up)
chain: GAPANPQNFNIYKRIFTDMVSSPGTNCAEAYHSWADLRDVLFNLCENLVKSSEANSPAHEEFKTMLLIAHYYATRSAAQSVKQLETVAARLSVSLLRHTQLLPVDKAFYEAGIAAKAVGWDNMAFIFLNRFLDLTDAIEEGTLDGLDHSDFQDTDIPFEVPLPAKQHVPEAEREEVRDWVLTVSMDQRLEQVLPRDERGAYEASLVAASTGVRALPCLITGYPILRNKIEFKRPGKAANKDNWNKFLMAIKTSHSPVCQDVLKFISQWCGGLPSTSFSFQ
notes: also called GST-HsIFT172C2; source: E. coli BL21 (DE3), purified (Ni-NTA, Q anion exchange, SEC); not shown: GST, N-terminal, kept
binds: all assays above

Source: publication PMC13290226, “Intraflagellar transport protein IFT172 contains a C-terminal ubiquitin-binding U-box-like domain involved in ciliary signaling” (eLife, 2026)
